The text below walks through data of patent publication US20110086806A1 (published 2011).

T1: recombinant human IL-12Rβ2/Fc fusion protein (R&D Systems) (human, UniProt Q99665 24-622, limits assumed)
T1 construct: Bought; also called Il12Rb2
T1 sequence: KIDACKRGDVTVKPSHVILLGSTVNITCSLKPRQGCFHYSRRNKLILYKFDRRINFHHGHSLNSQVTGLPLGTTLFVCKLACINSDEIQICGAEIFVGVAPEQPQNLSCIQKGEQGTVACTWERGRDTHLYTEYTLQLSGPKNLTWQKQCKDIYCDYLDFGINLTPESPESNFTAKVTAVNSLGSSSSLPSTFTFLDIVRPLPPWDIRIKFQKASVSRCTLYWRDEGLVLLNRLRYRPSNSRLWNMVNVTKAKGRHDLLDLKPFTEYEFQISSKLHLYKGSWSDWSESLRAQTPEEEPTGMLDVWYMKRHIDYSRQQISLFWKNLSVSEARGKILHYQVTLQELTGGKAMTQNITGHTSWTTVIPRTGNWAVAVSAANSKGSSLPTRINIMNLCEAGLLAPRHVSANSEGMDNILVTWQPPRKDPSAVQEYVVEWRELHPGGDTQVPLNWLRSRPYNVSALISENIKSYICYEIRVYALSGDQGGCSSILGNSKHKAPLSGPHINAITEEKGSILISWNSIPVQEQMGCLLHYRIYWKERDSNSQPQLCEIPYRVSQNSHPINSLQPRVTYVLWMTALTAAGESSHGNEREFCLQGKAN

T2: recombinant human IL-23R/Fc chimera (R&D Systems) (human, UniProt Q5VWK5 24-355)
T2 construct: Bought; also called rhIL23RFc
T2 sequence (looked up): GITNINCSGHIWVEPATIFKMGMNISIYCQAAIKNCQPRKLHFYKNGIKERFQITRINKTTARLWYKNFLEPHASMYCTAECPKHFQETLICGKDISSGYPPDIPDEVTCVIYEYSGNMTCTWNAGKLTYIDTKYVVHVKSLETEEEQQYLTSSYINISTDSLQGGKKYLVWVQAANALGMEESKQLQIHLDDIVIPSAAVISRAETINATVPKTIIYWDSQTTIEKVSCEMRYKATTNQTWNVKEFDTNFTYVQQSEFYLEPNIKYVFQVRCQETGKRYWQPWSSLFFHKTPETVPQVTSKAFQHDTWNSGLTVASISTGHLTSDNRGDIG

B1: 101-113-6C108 ATRIMER complex (designed binder)
chain: EPPTQKPKKIVNAKKDVVNTKMFEELKSRLDTLAQEVALLKEQQALQTVCLKGTKVHMKCFLAFTQTKTFHEASEDCISRGGTLSTPQTGSENDALYEYLRQSVGNEAEIWLGLNGSALTNTWVDMTGARIAYKNWEPPPPHHPMGGFGVFGENCAVLSGAANGKWFDKRCRDQLPYICQFGIV
modifications: Forms a homotrimer through the tetranectin coiled coil; one protomer is given.
notes: not shown: C-terminal tag: His/Myc (pANA4) or HA-StrepII (pANA10)
B2: 105-08-1A8 ATRIMER complex (designed binder)
chain: B1 chain with A118P, L119R, P138T, P139E, P140I, P141T, H142A, H143Q, M145D
B3: 101-51-1A4 ATRIMER complex (designed binder)
chain: B1 chain with P138R, P140A, P141L, H142V, H143Q, M145R
modifications: Forms a homotrimer through the tetranectin coiled coil; one protomer is given.
notes: as for B1
B4: 101-54-4B6 ATRIMER complex (designed binder)
chain: B1 chain with P140G
B5: H4E E137A ATRIMER complex (designed binder)
chain: B1 chain with E137A, P138T, P139E, P140I, P141T, H142A, H143Q, M145D
B6: 101-51-1A7 ATRIMER complex (designed binder)
chain: B1 chain with P138R, P141L, H142Y, H143Q, M145G, F148W
modifications: Forms a homotrimer through the tetranectin coiled coil; one protomer is given.
notes: as for B1
B7: 056-41.B5C ATRIMER complex (designed binder)
chain: B1 chain with P138T, P139E, P140I, P141T, H142A, H143Q, M145D, V150Y
modifications: non-covalent homotrimer of the one chain given
notes: not shown: Also the single Ser the vector leaves after the ompA signal
B8: 001-87.A9E ATRIMER complex (designed binder)
chain: B1 chain with P138T, P139E, P140I, P141T, H142A, H143Q, M145D, F148L, V150Y, F151W
modifications: Homotrimer of this chain (ATRIMER complex).
notes: not shown: A possible extra N-terminal Ser from the ompA junction is left out
B9: 056-53.H1G ATRIMER complex (designed binder)
chain: EPPTQKPKKIVNAKKDVVNTKMFEELKSRLDTLAQEVALLKEQQALQTVCLKGTKVHMKCFLAFTQTKTFHEASEDCISRGGTLSTPQTGSENDALYEYLRQSVGNEAEIWLGLNSGHWRAVWVDMTGARIAYKNWETEITAQPDGGFGVFGENCAVLSGAANGKWFDKRCRDQLPYICQFGIV
modifications: Homotrimer of this chain (ATRIMER complex).
notes: as for B8
B10: 056-53.H7H ATRIMER complex (designed binder)
chain: B9 chain with S116G, G117S, H118S, W119V, R120S, A121D, V150Y
modifications: Homotrimer of this chain (ATRIMER complex).
notes: as for B8
B11: 056-40.A3C ATRIMER complex (designed binder)
chain: B9 chain with S116G, G117S, H118A, W119T, R120T, V122T, V150Y
modifications: Homotrimer of this chain (ATRIMER complex).
notes: as for B8
B12: 056-45.F7F ATRIMER complex (designed binder)
chain: B9 chain with S116G, G117S, H118A, W119T, R120T, A121D, V122T, V150Y
modifications: Homotrimer of this chain (ATRIMER complex).
notes: as for B8
B13: 056-53.H7B ATRIMER complex (designed binder)
chain: B9 chain with S116A, H118R, W119M, R120G, A121L, F148W
modifications: non-covalent homotrimer of the one chain given
notes: as for B7
B14: 001-69.4G8 ATRIMER complex (designed binder)
chain: B9 chain with S116G, G117S, H118R, W119R, R120S, A121G
notes: as for B1

Residue numbers refer to the chain shown, from its start. In names and notes the source's numbering stands.

The target of one test is T3, recombinant human IL-12Rβ1/Fc fusion protein (R&D Systems) (human, UniProt P42701 24-540, limits assumed).
T3 construct: Bought; also called Il12Rb1
Description: SPR. The procedure:
(§1) A Biacore 3000 biosensor (GE Healthcare) was used to evaluate the interaction of human IL-12Rβ1/Fc or IL-12Rβ2/Fc with IL-23R binding ATRIMER™ complexes. Immobilization of an anti-human IgG Fc antibody (GE Healthcare) to the CM5 chip (GE Healthcare) was performed using standard amine coupling chemistry, and this modified surface was used to capture recombinant human IL-12Rβ1/Fc or IL-12Rβ2/Fc fusion protein (R&D Systems). A low-density receptor surface, less than 200 RU, was used for all of the analyses. ATRIMER™ complex dilutions (100 nM) were injected over the IL-12R surface at 30 μl/min. Data collection was 3 minutes for the association and 5 minutes for dissociation. The anti-human IgG surface was regenerated with a 30s pulse of 3M magnesium chloride. All sensorgrams were double-referenced against an anti-human IgG Fc antibody surface as well as buffer injections.
On the technique in general: Surface plasmon resonance follows binding to a sensor surface in real time, without labels.
B1: the binding result is listed as “no binding (tested: 100 nM)”.
Turning to B2, the binding result is “no binding (tested: 100 nM)”.
The same measure, in the same setting: the value for B3 was “no binding (tested: 100 nM)”; that for B4 was “no binding (tested: 100 nM)”; that for B5 was “no binding (tested: 100 nM)”.
Still for that read-out and setting: the value for B6 was “no binding (tested: 100 nM)”.

The target in another test is T1, recombinant human IL-12Rβ2/Fc fusion …. Description: SPR. On the procedure:
as §1
B1: the binding result is given as “no binding (tested: 100 nM)”.
Still for that read-out and setting: the entry for B2 is “no binding (tested: 100 nM)”; for B3 it is “no binding (tested: 100 nM)”.
The same measure, in the same setting: the value for B4 was “no binding (tested: 100 nM)”; that for B5 was “no binding (tested: 100 nM)”; that for B6 was “no binding (tested: 100 nM)”.

Another test deals with T2, recombinant human IL-23R/Fc chimera …. The experiment in a line: competition ELISA vs IL-23.
As to B1, the “Ratio IC50 to 056-53.H4E IC50” value is 0.9.
The same measure, in the same setting: the value for B2 was 1.6.
For B3, the “Ratio IC50 to 056-53.H4E IC50” value worked out at 1.
In the case of B4, the “Ratio IC50 to 056-53.H4E IC50” value came to 0.3.
The same measure, in the same setting: the figure for B6 is 1.

The target is the same in the next test. The experiment in a line: SPR. An outline of the steps: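 Recombinant human IL-23R/Fc captured on anti-human IgG Fc CM5 surface (<200 RU); ATRIMER complexes at 1-500 nM injected at 30 μl/min, 3 min association and 5 min dissociation. Kinetic constants fitted from double-referenced sensorgrams.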
In the case of B7, the Ka was determined as 9.78e+08 M⁻¹; the dissociation constant Kd (as a rule, the concentration at which binding is half-saturated) turned out to be 1.02 nM; the koff (in general, the first-order rate constant of dissociation) came out at 0.000314 s⁻¹; the on-rate (kon) – broadly, the second-order rate constant of association – was determined as 307000 M⁻¹ s⁻¹.
On the same counts, the results for B1 are 1.63e+09 M⁻¹, 0.613 nM, 0.000382 s⁻¹ and 623000 M⁻¹ s⁻¹.
On the same counts, the results for B2 are 2.14e+09 M⁻¹, 0.467 nM, 0.000344 s⁻¹ and 737000 M⁻¹ s⁻¹.
On the same counts, the results for B8 are 5.21e+08 M⁻¹, 1.92 nM, 0.00033 s⁻¹ and 172000 M⁻¹ s⁻¹.
Turning to B3, the Ka turned out to be 2.58e+09 M⁻¹, the equilibrium dissociation constant (Kd) was 0.388 nM, the koff is 0.000395 s⁻¹ and the kon stood at 1.02e+06 M⁻¹ s⁻¹.
Turning to B9, the Ka worked out at 1.95e+08 M⁻¹, the dissociation constant (Kd) is 5.13 nM, the off-rate constant (koff) turned out to be 0.000489 s⁻¹ and the kon was found to be 95200 M⁻¹ s⁻¹.
On the same counts, the results for B10 are 6.65e+08 M⁻¹, 1.5 nM, 0.000385 s⁻¹ and 256000 M⁻¹ s⁻¹.
For B11, in that order: 5.7e+08 M⁻¹, 1.75 nM, 0.000373 s⁻¹ and 213000 M⁻¹ s⁻¹.
For B4, in that order: 1.76e+09 M⁻¹, 0.569 nM, 0.00039 s⁻¹ and 687000 M⁻¹ s⁻¹.
In the case of B12, the Ka amounted to 7.92e+08 M⁻¹, the Kd was found to be 1.26 nM, the koff came out at 0.000376 s⁻¹ and the kon came out at 298000 M⁻¹ s⁻¹.
For B13, in that order: 1.8e+09 M⁻¹, 0.557 nM, 0.00024 s⁻¹ and 431000 M⁻¹ s⁻¹.
On the same counts, the results for B6 are 2.24e+09 M⁻¹, 0.447 nM, 0.000187 s⁻¹ and 419000 M⁻¹ s⁻¹.
On the same counts, the results for B14 are 1.35e+08 M⁻¹, 7.42 nM, 0.000805 s⁻¹ and 109000 M⁻¹ s⁻¹.

The target is the same in another test. The experiment in a line: competition ELISA vs IL-23. The source holds these as a separate data set. The procedure:
Assays were performed generally as follows. Individual wells in Immulon HB2 plates were incubated overnight at 4° C. with 100 μL PBS containing 100 ng of an anti-human IgG Fc (R&D MAB 110 clone 97924). Plates were washed five times with PBS/0.05% Tween 20, and wells were incubated for 1.5 h at RT with 100 μL each of PBS containing 50 ng of recombinant human IL-23R/Fc. […] Competitor was included at a final concentration of 1 μg/mL. After incubation, plates were washed as described and wells were incubated for 40 min at RT with 100 μL each of PBS containing a 1:5000 dilution of streptavidin-HRP conjugate (Pierce catalog no. 21130). After washing, wells were incubated with 100 μL each of TMB (BioFX Lab catalog no. TMBH-1000-0) for up to 30 min at RT. Reactions were stopped with an equal volume of 0.2 M sulfuric acid.
A number of ATRIMER™ polypeptide complexes were tested in competition ELISA more extensively to determine IC50 values.
In the case of B7, the IC50 – broadly, the midpoint of a concentration-inhibition curve – came to 1.65 nM.
Same read-out and setting: the value for B8 was 2.6 nM; that for B9 was 3.75 nM.
The same measure, in the same setting: the figure for B10 is 0.53 nM.
On the same count and under the same terms, the figure for B11 is 1.8 nM.
As for B12, the IC50 was determined as 1.45 nM.
The same measure, in the same setting: the value for B13 was 0.9 nM; that for B14 was 1.4 nM.
